The supplement of paper PMC7877785
± gives the uncertainty stated by the source.

Assay: self-splicing fitness, log relative to wild type (ln ratio); higher = more splicing; Tetrahymena group I intron in knt gene, E. coli kanamycin selection, DiMSum; sequences stand for … in CUCUCU…GGAGGGAAAAGUUAUCAGGCAUGCACCUGGUAGCUAGUCUUUAAACCAAUAGAUUGCAUCGGUUUAAAAGGCAAGACCGUCAAAUUGCGGGAAAGGGGUCAACAGCCGUUCAGUACCAAGUCUCAGGGGAAACUUUGAGAUGGCCUUGCAAAGGGUAUGGUAAUAAGCUGACGGACAUGGUCCUAACCACGCAGCCAAGUCCUAAGUCAACAGAUCUUCUGUUGAUAUGGAUGCAGUUCACAGACUAAAUGUCGGUCGGGGAAGAUGUAUUCUUCUCAUAAGAUAUAGUCGGACCUCUCCUUAAUGGGAGCUAGCGGAUGAAGUGAUGCAACACUGGAGCCGCUGGGAACUAAUUUGUAUGCGAAAGUAUAUUGAUUAGUUUUGGAGUACUCGUGGUCG
In short: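 Fitness was computed with DiMSum as the error-weighted combination of replicate fold changes, kanamycin versus none, each normalised to wild type. The library randomised all eight intron nucleotides of the P1ex region, with the intron placed in the knt kanamycin-resistance gene on pET-22b(+) in E. coli BL21(DE3). Six replicate transformations were grown overnight at 37°C or 30°C on LB agar with or without 25 μg/mL kanamycin, plus 100 μg/mL carbenicillin, 50 μM IPTG and 0.2% rhamnose. Pooled colonies were amplicon-sequenced on an Illumina HiSeq 2500.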

Sequence	self-splicing fitness (ln) (30 °C)	self-splicing fitness (ln) (37 °C)
CAUCAGCAAUAUUACGGCUC	-1.91 ± 0.1	-1.1 ± 0.12
CAUCAGCAAUAUUACGGCUG	-1.76 ± 0.11	-0.0705 ± 0.16
CAUCAGCAAUAUUACGGGAC	-3.95 ± 0.46	-2.51 ± 0.22
CAUCAGCAAUAUUACGGUCG	0.0182 ± 0.075	0.236 ± 0.093
CAUCAGCAAUAUUACGGUUC	-2.65 ± 0.14	-0.935 ± 0.13
CAUCAGCAAUAUUACGGUUU	-2.29 ± 0.079	-0.832 ± 0.094
CAUCAGCAAUAUUACGUACU	-2.68 ± 0.18	-1.65 ± 0.22
CAUCAGCAAUAUUACGUCAA	-3.09 ± 0.15	-2.38 ± 0.15
CAUCAGCAAUAUUACGUCCU	-3.78 ± 0.22	-1.91 ± 0.22
CAUCAGCAAUAUUACGUCUU	-3.53 ± 0.14	-2.19 ± 0.12
CAUGAGCAAUAUUACGAAAA	-3.45 ± 0.34	-1.22 ± 0.2
CAUGAGCAAUAUUACGAACA	–	-2 ± 0.32
CAUGAGCAAUAUUACGAAUC	–	-2.57 ± 0.42
CAUGAGCAAUAUUACGACGC	-3.01 ± 0.23	-1.99 ± 0.3
CAUGAGCAAUAUUACGAGUC	-4.56 ± 0.28	-3.27 ± 0.22
CAUGAGCAAUAUUACGCAAC	-1.07 ± 0.29	-1.69 ± 0.43
CAUGAGCAAUAUUACGCCAU	-3.43 ± 0.3	–
CAUGAGCAAUAUUACGCCCU	–	-1.18 ± 0.27
CAUGAGCAAUAUUACGCCGC	-3.56 ± 0.2	-2.71 ± 0.22
CAUGAGCAAUAUUACGCCUU	-3.02 ± 0.26	-1.86 ± 0.24
CAUGAGCAAUAUUACGGAGG	-3 ± 0.14	-2.16 ± 0.18
CAUGAGCAAUAUUACGGAUA	-3.32 ± 0.22	-1.68 ± 0.24
CAUGAGCAAUAUUACGGAUC	–	-2.94 ± 0.33
CAUGAGCAAUAUUACGGAUG	-3.02 ± 0.31	-2.01 ± 0.26
CAUGAGCAAUAUUACGGCAC	–	-1.42 ± 0.3

Sequence	self-splicing fitness (ln) (30 °C)	self-splicing fitness (ln) (37 °C)
CAUGAGCAAUAUUACGGCUG	-0.641 ± 0.073	-0.532 ± 0.12
CAUGAGCAAUAUUACGGGUU	-3.04 ± 0.1	-3.05 ± 0.16
CAUGAGCAAUAUUACGUAAU	-3.04 ± 0.29	-2.73 ± 0.3
CAUGAGCAAUAUUACGUCGG	-2.94 ± 0.18	-1.57 ± 0.21
CAUGAGCAAUAUUACGUGAG	-3.88 ± 0.37	-2.55 ± 0.24
CAUGAGCAAUAUUACGUGCA	-1.37 ± 0.15	-1.97 ± 0.24
CAUGAGCAAUAUUACGUUGU	-4.13 ± 0.29	-3.57 ± 0.19
CAUGAGCAAUAUUACGUUUG	-3.57 ± 0.16	-2.89 ± 0.2
CAUUAGCAAUAUUACGACCU	-1.77 ± 0.45	-1.77 ± 0.47
CAUUAGCAAUAUUACGACGG	-0.257 ± 0.094	-0.0198 ± 0.13
CAUUAGCAAUAUUACGAGGC	–	-1.85 ± 0.33
CAUUAGCAAUAUUACGAUGA	-2.12 ± 0.2	-1.09 ± 0.15
CAUUAGCAAUAUUACGAUGU	-3.45 ± 0.25	-3.38 ± 0.23
CAUUAGCAAUAUUACGAUUG	-1.49 ± 0.077	-0.759 ± 0.11
CAUUAGCAAUAUUACGCCAC	-2.71 ± 0.44	-2.41 ± 0.35
CAUUAGCAAUAUUACGCCUC	-1.17 ± 0.21	-1.83 ± 0.31
CAUUAGCAAUAUUACGCGAU	-3.83 ± 0.32	-1.52 ± 0.23
CAUUAGCAAUAUUACGCGUC	-2.64 ± 0.29	-2.01 ± 0.26
CAUUAGCAAUAUUACGCUGG	-2.7 ± 0.13	-1.67 ± 0.14
CAUUAGCAAUAUUACGCUUA	-2.22 ± 0.13	-2.16 ± 0.15
CAUUAGCAAUAUUACGCUUC	-2.28 ± 0.34	–
CAUUAGCAAUAUUACGGACA	-2.45 ± 0.22	-1.22 ± 0.18
CAUUAGCAAUAUUACGGAUG	-3.67 ± 0.39	-3.03 ± 0.25
CAUUAGCAAUAUUACGGCAG	-0.186 ± 0.078	-0.0776 ± 0.11
CAUUAGCAAUAUUACGGCAU	-2.99 ± 0.21	-1.66 ± 0.17

Sequence	self-splicing fitness (ln) (30 °C)	self-splicing fitness (ln) (37 °C)
CAUUAGCAAUAUUACGGGAC	-3.64 ± 0.27	-2.31 ± 0.25
CAUUAGCAAUAUUACGGUAG	-0.468 ± 0.062	-0.027 ± 0.072
CAUUAGCAAUAUUACGUACG	-0.341 ± 0.09	0.593 ± 0.12
CAUUAGCAAUAUUACGUACU	-3.11 ± 0.18	-1.8 ± 0.15
CAUUAGCAAUAUUACGUUCG	0.151 ± 0.084	0.359 ± 0.093
CAUUAGCAAUAUUACGUUUA	-1.42 ± 0.15	-1.48 ± 0.15
CCAAAGCAAUAUUACGACAG	-0.638 ± 0.066	-0.249 ± 0.089
CCAAAGCAAUAUUACGAGCG	-0.496 ± 0.069	-0.161 ± 0.1
CCAAAGCAAUAUUACGCAAG	-1.83 ± 0.12	-1.52 ± 0.14
CCAAAGCAAUAUUACGCCCC	–	-0.985 ± 0.44
CCAAAGCAAUAUUACGCCCG	-0.324 ± 0.15	0.862 ± 0.18
CCAAAGCAAUAUUACGCCGU	-3.25 ± 0.29	-3.3 ± 0.35
CCAAAGCAAUAUUACGCUUC	-3.37 ± 0.18	-2.48 ± 0.18
CCAAAGCAAUAUUACGGAGU	-2.7 ± 0.13	-2.35 ± 0.2
CCAAAGCAAUAUUACGGCGU	-3.49 ± 0.12	-2.62 ± 0.14
CCAAAGCAAUAUUACGGGAC	-4.28 ± 0.3	-3.32 ± 0.46
CCAAAGCAAUAUUACGGGCG	-1.31 ± 0.065	-0.301 ± 0.094
CCAAAGCAAUAUUACGGGGC	-3.09 ± 0.19	-2.93 ± 0.27
CCAAAGCAAUAUUACGGGGG	-3.14 ± 0.18	-1.5 ± 0.16
CCAAAGCAAUAUUACGGUCC	-4.23 ± 0.46	-2.13 ± 0.3
CCAAAGCAAUAUUACGGUGG	-4.1 ± 0.19	-1.76 ± 0.16
CCAAAGCAAUAUUACGUACA	-3.73 ± 0.23	-3.32 ± 0.28
CCAAAGCAAUAUUACGUGAA	-4.04 ± 0.17	-3.18 ± 0.27
CCAAAGCAAUAUUACGUGGU	-3.39 ± 0.098	-3.29 ± 0.14
CCAAAGCAAUAUUACGUUAU	-3.2 ± 0.13	-2.68 ± 0.15

Sequence	self-splicing fitness (ln) (30 °C)	self-splicing fitness (ln) (37 °C)
CCACAGCAAUAUUACGAAAA	-3.8 ± 0.27	-2.58 ± 0.22
CCACAGCAAUAUUACGAGAC	-3.7 ± 0.2	-3.01 ± 0.23
CCACAGCAAUAUUACGAGUG	-1.31 ± 0.057	0.0708 ± 0.062
CCACAGCAAUAUUACGAUAA	-3.11 ± 0.25	-2.75 ± 0.32
CCACAGCAAUAUUACGCAAG	-1.34 ± 0.064	-0.406 ± 0.072
CCACAGCAAUAUUACGCGAG	-1.27 ± 0.076	-0.902 ± 0.083
CCACAGCAAUAUUACGCGCU	-4.48 ± 0.23	-2.26 ± 0.15
CCACAGCAAUAUUACGCUAU	-3.61 ± 0.26	-3.12 ± 0.25
CCACAGCAAUAUUACGGAAC	-3.75 ± 0.24	-2.47 ± 0.23
CCACAGCAAUAUUACGGAUA	-2.27 ± 0.12	-2.68 ± 0.18
CCACAGCAAUAUUACGGGAA	-3.4 ± 0.15	-3.01 ± 0.2
CCACAGCAAUAUUACGGGAC	-3.78 ± 0.33	-2.26 ± 0.2
CCACAGCAAUAUUACGGGGC	-3.95 ± 0.14	-2.43 ± 0.16
CCACAGCAAUAUUACGUAAG	-0.731 ± 0.038	0.388 ± 0.061
CCACAGCAAUAUUACGUAUC	-2.59 ± 0.16	-2 ± 0.22
CCACAGCAAUAUUACGUCGG	-3.14 ± 0.12	-1.95 ± 0.18
CCACAGCAAUAUUACGUGGA	-3.7 ± 0.16	-3.16 ± 0.16
CCACAGCAAUAUUACGUGUG	-3.61 ± 0.095	-2.36 ± 0.092
CCACAGCAAUAUUACGUUAU	-4.08 ± 0.15	-2.66 ± 0.16
CCAGAGCAAUAUUACGAAAG	-2.45 ± 0.2	-1.47 ± 0.17
CCAGAGCAAUAUUACGAACU	-3.13 ± 0.35	-1.86 ± 0.35
CCAGAGCAAUAUUACGACGC	-4.17 ± 0.34	-2.11 ± 0.28
CCAGAGCAAUAUUACGAGCA	-5.29 ± 0.41	-2.32 ± 0.19
